Data published in the supplement of paper PMC11246515.
± gives the standard deviation of the averaged measurements.

Assay: total protein half-life in vivo (active degradation + dilution); higher = more stable protein
[1] = E. coli NCM3722 delta-clpP delta-lon delta-hslV, growth: N-lim chemostat, doubling time 6 h
[2] = E. coli NCM3722 delta-clpP, growth: N-lim chemostat, doubling time 6 h
[3] = E. coli NCM3722 delta-lon, growth: N-lim chemostat, doubling time 6 h
[4] = E. coli NCM3722 delta-smpB, growth: N-lim chemostat, doubling time 6 h
[5] = wild type E. coli NCM3722, growth: C-lim chemostat, doubling time 3 h
[6] = wild type E. coli NCM3722, growth: C-lim chemostat, doubling time 6 h
[7] = wild type E. coli NCM3722, growth: C-lim chemostat, doubling time 12 h
[8] = wild type E. coli NCM3722, growth: N-lim chemostat, doubling time 6 h
[9] = wild type E. coli NCM3722, growth: N-lim chemostat, doubling time 12 h
[10] = wild type E. coli NCM3722, growth: P-lim chemostat, doubling time 6 h
[11] = wild type E. coli NCM3722, growth: P-lim chemostat, doubling time 12 h
[12] = E. coli NCM3722 delta-hslV, growth: N-lim chemostat, doubling time 6 h

Sequence	total protein half-life in vivo [1] [h]	total protein half-life in vivo [2] [h]	total protein half-life in vivo [3] [h]	total protein half-life in vivo [4] [h]	total protein half-life in vivo [5] [h]	total protein half-life in vivo [6] [h]	total protein half-life in vivo [7] [h]	total protein half-life in vivo [8] [h]	total protein half-life in vivo [9] [h]	total protein half-life in vivo [10] [h]	total protein half-life in vivo [11] [h]	total protein half-life in vivo [12] [h]
MFTKRHRITLLFNANKAYDRQVVEGVGEYLQASQSEWDIFIEEDFRARIDKIKDWLGDGVIADFDDKQIEQALADVDVPIVGVGGSYHLAESYPPVHYIATDNYALVESAFLHLKEKGVNRFAFYGLPESSGKRWATEREYAFRQLVAEEKYRGVVYQGLETAPENWQHAQNRLADWLQTLPPQTGIIAVTDARARHILQVCEHLHIPVPEKLCVIGIDNEELTRYLSRVALSSVAQGARQMGYQAAKLLHRLLDKEEMPLQRILVPPVRVIERRSTDYRSLTDPAVIQAMHYIRNHACKGIKVDQVLDAVGISRSNLEKRFKEEVGETIHAMIHAEKLEKARSLLISTTLSINEISQMCGYPSLQYFYSVFKKAYDTTPKEYRDVNSEVML [P0ACI3]	5.66 ± 0.54	5.86 ± 0.86	3.81 ± 0.22	3.05 ± 0.42	2.89 ± 0.14	5.27 ± 0.069	9.26 ± 0.14	3.78 ± 0.56	4.44 ± 1.1	5.4 ± 0.33	9.78 ± 0.94	–
MAKNIQAIRGMNDYLPGETAIWQRIEGTLKNVLGSYGYSEIRLPIVEQTPLFKRAIGEVTDVVEKEMYTFEDRNGDSLTLRPEGTAGCVRAGIEHGLLYNQEQRLWYIGPMFRHERPQKGRYRQFHQLGCEVFGLQGPDIDAELIMLTARWWRALGISEHVTLELNSIGSLEARANYRDALVAFLEQHKEKLDEDCKRRMYTNPLRVLDSKNPEVQALLNDAPALGDYLDEESREHFAGLCKLLESAGIAYTVNQRLVRGLDYYNRTVFEWVTNSLGSQGTVCAGGRYDGLVEQLGGRATPAVGFAMGLERLVLLVQAVNPEFKADPVVDIYLVASGADTQSAAMALAERLRDELPGVKLMTNHGGGNFKKQFARADKWGARVAVVLGESEVANGTAVVKDLRSGEQTAVAQDSVAAHLRTLLG	5.71 ± 1.3	5.11 ± 0.23	5.45 ± 0.52	4.85 ± 0.12	3.17 ± 0.23	6.14 ± 0.2	10.5 ± 0.68	4.8 ± 0.22	9.1857 ± 0.0011	5.98 ± 0.1	13.7 ± 0.34	5.44 ± 0.23
MRTLQGWLLPVFMLPMAVYAQEATVKEVHDAPAVRGSIIANMLQEHDNPFTLYPYDTNYLIYTQTSDLNKEAIASYDWAENARKDEVKFQLSLAFPLWRGILGPNSVLGASYTQKSWWQLSNSEESSPFRETNYEPQLFLGFATDYRFAGWTLRDVEMGYNHDSNGRSDPTSRSWNRLYTRLMAENGNWLVEVKPWYVVGNTDDNPDITKYMGYYQLKIGYHLGDAVLSAKGQYNWNTGYGGAELGLSYPITKHVRLYTQVYSGYGESLIDYNFNQTRVGVGVMLNDLF [P0A921]	6.42 ± 0.11	6.15 ± 0.48	7.24 ± 0.85	5.96 ± 0.66	3.01 ± 0.048	6.37 ± 1.1	14.2 ± 0.33	6.28 ± 0.44	13.3 ± 0.75	6.13 ± 0.1	14.2 ± 0.75	–
MKKIGVILSGCGVYDGSEIHEAVLTLLAISRSGAQAVCFAPDKQQVDVINHLTGEAMTETRNVLIEAARITRGEIRPLAQADAAELDALIVPGGFGAAKNLSNFASLGSECTVDRELKALAQAMHQAGKPLGFMCIAPAMLPKIFDFPLRLTIGTDIDTAEVLEEMGAEHVPCPVDDIVVDEDNKIVTTPAYMLAQNIAEAASGIDKLVSRVLVLAE [P0ABU5]	5.23 ± 0.27	4.46 ± 0.24	5.05 ± 0.41	4.5 ± 0.09	–	6.9 ± 1.3	10.8 ± 0.44	4.79 ± 0.54	7.44 ± 0.33	5.67 ± 0.31	13.4 ± 0.84	4.76 ± 0.49
MTVQDYLLKFRKISSLESLEKLYDHLNYTLTDDQELINMYRAADHRRAELVSGGRLFDLGQVPKSVWHYVQ	6.59 ± 0.11	–	5.67 ± 0.55	4.11 ± 0.46	–	–	–	3.59	6.7	2.63	6.54 ± 0.37	–
MNFHHLAYWQDKALSLAIENRLFINGEYTAAAENETFETVDPVTQAPLAKIARGKSVDIDRAMSAARGVFERGDWSLSSPAKRKAVLNKLADLMEAHAEELALLETLDTGKPIRHSLRDDIPGAARAIRWYAEAIDKVYGEVATTSSHELAMIVREPVGVIAAIVPWNFPLLLTCWKLGPALAAGNSVILKPSEKSPLSAIRLAGLAKEAGLPDGVLNVVTGFGHEAGQALSRHNDIDAIAFTGSTRTGKQLLKDAGDSNMKRVWLEAGGKSANIVFADCPDLQQAASATAAGIFYNQGQVCIAGTRLLLEESIADEFLALLKQQAQNWQPGHPLDPATTMGTLIDCAHADSVHSFIREGESKGQLLLDGRNAGLAAAIGPTIFVDVDPNASLSREEIFGPVLVVTRFTSEEQALQLANDSQYGLGAAVWTRDLSRAHRMSRRLKAGSVFVNNYNDGDMTVPFGGYKQSGNGRDKSLHALEKFTELKTIWISLEA	3.96 ± 0.66	> 8	–	1.11 ± 0.082	2.68 ± 0.027	2.8 ± 0.14	3.22 ± 0.67	1.43 ± 0.29	1.48	4.1373 ± 0.0017	6.22 ± 0.066	1.03 ± 0.13
MMPQSLPDTTTPKRRFRWPTGMPQLVALLLVLLVDSLVAPHFWQVVLQDGRLFGSPIDILNRAAPVALLAIGMTLVIATGGIDLSVGAVMAIAGATTAAMTVAGFSLPIVLLSALGTGILAGLWNGILVAILKIQPFVATLILMVAGRGVAQLITAGQIVTFNSPDLSWFGSGSLLFLPTPVIIAVLTLILFWLLTRKTALGMFIEAVGINIRAAKNAGVNTRIIVMLTYVLSGLCAAIAGIIVAADIRGADANNAGLWLELDAILAVVIGGGSLMGGRFNLLLSVVGALIIQGMNTGILLSGFPPEMNQVVKAVVVLCVLIVQSQRFISLIKGVRSRDKT	–	–	–	–	–	–	8.92	–	–	–	–	–
MKTLIVSTVLAFITFSAQAAAFQVTSNEIKTGEQLTTSHVFSGFGCEGGNTSPSLTWSGVPEGTKSFAVTVYDPDAPTGSGWWHWTVVNIPATVTYLPVDAGRRDGTKLPTGAVQGRNDFGYAGFGGACPPKGDKPHHYQFKVWALKTEKIPVDSNSSGALVGYMLNANKIATAEITPVYEIK	4.45 ± 0.4	4.74 ± 0.75	5.18 ± 0.93	5.046 ± 0.013	2.24 ± 0.28	3.37	7.12 ± 3.5	6.15 ± 0.075	10.9 ± 0.48	6.28 ± 1.6	10.3 ± 1.9	–
